Test results taken from US7122636.

Target: recombinant human IL-8, (ser-IL-8)72 (human, UniProt P10145 28-99)
Test: inhibition of 125I-IL-8 binding to neutrophils

IC50: 4.9 nM
B1: humanized 6G425 F(ab)-9 (humanized 6G4V11 Fab) (Fab, V domains shown)
VH: EVQLVQSGGGLVQPGGSLRLSCAASGYSFSSHYMHWVRQAPGKGLEWVGYIDPSNGETTYNQKFKGRFTLSRDNSKNTAYLQMNSLRAEDTAVYYCARGDYRYNGDWFFDVWGQGTLVTVSS
VL: DIQMTQSPSSLSASVGDRVTITCRSSQSLVHGIGNTYLHWYQQKPGKAPKLLIYKVSNRFSGVPSRFSGSGSGTDFTLTISSLQPEDFATYYCSQSTHVPLTFGQGTKVEIKR
